{"source": "paper PMC7447767", "about": "“Molecular mechanism of mitochondrial phosphatidate transfer by Ups1” (Communications Biology, 2020)", "binders": {"B1": {"name": "Mdm35ΔC5 (domain or fragment, Saccharomyces cerevisiae, UniProt O60200 1-81, looked up)", "chain": "MGNIMSASFAPECTDLKTKYDSCFNEWYSEKFLKGKSVENECSKQWYAYTTCVNAALVKQGIKPALDEAREEAPFENGGKL", "notes": "Mdm35, Saccharomyces cerevisiae, lacking the five C-terminal residues K82–K86; Limit worked out from the stated deletion K82–K86; also called Ups1/Mdm35ΔC5 (Mdm35 chain); source: gene synthesized (Beijing SYKM); E. coli Trans B, purified with Ups1"}, "B2": {"name": "selenomethionine-substituted Mdm35 (natural protein, Saccharomyces cerevisiae, UniProt O60200 1-86, looked up)", "chain": "MGNIMSASFAPECTDLKTKYDSCFNEWYSEKFLKGKSVENECSKQWYAYTTCVNAALVKQGIKPALDEAREEAPFENGGKLKEVDK", "modifications": "selenomethionine-substituted", "notes": "Mdm35, Saccharomyces cerevisiae, full length, selenomethionine in place of methionine; also called SeMet-labeled Mdm35; Mdm35A; source: selenomethionine-derived Ups1/Mdm35 complex; expression of the SeMet form not described"}, "B3": {"name": "Mdm35 (full-length) (natural protein, Saccharomyces cerevisiae, UniProt O60200 1-86, looked up)", "chain": "B2 chain", "notes": "Mdm35, Saccharomyces cerevisiae, full length, amplified from genomic DNA; Two disulfide bridges (C13-C52 and C23-C42) between the αA and αB helices are seen in the structure; also called WT; wild-type Ups1/Mdm35 (Mdm35 chain); source: E. coli Trans B, co-expressed with His-tagged Ups1 from pETDuet-1, purified (Ni-chelated Sepharose, Superdex 75)"}, "B4": {"name": "Mdm35ΔC14 (domain or fragment, Saccharomyces cerevisiae, UniProt O60200 1-72, looked up)", "chain": "MGNIMSASFAPECTDLKTKYDSCFNEWYSEKFLKGKSVENECSKQWYAYTTCVNAALVKQGIKPALDEAREE", "notes": "Mdm35, Saccharomyces cerevisiae, lacking the 14 C-terminal residues A73–K86; Limit worked out from the stated deletion A73–K86; also called Ups1/Mdm35ΔC14 (Mdm35 chain); source: gene synthesized (Beijing SYKM); E. coli Trans B, purified with Ups1"}}, "settings_in_all_cases": "both partners purified", "key": {"[1]": {"target": "T1, Ups1 (N-terminal 6x His-tagged full-length Ups1) (Saccharomyces cerevisiae, UniProt Q05776 1-175)", "T1 construct": "Ups1, Saccharomyces cerevisiae, full length, amplified from genomic DNA; Always handled as the co-expressed complex with Mdm35 or an Mdm35 truncation; also called WT; wild-type Ups1/Mdm35 (Ups1 chain); source: E. coli Trans B, co-expressed with Mdm35 from pETDuet-1, purified (Ni-chelated Sepharose, Superdex 75)", "T1 sequence (looked up)": "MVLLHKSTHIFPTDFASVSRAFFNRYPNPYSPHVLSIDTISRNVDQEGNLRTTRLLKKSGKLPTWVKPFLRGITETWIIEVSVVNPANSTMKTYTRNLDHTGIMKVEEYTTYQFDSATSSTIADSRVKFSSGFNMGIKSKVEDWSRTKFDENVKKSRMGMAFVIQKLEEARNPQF", "assay": "SEC; gel filtration of the Ups1/Mdm35 truncation mutants (Supplementary Fig. 8a)"}, "[2]": {"target": "T2, selenomethionine-substituted Ups1 (Saccharomyces cerevisiae, UniProt Q05776 1-175, selenomethionine-substituted)", "T2 construct": "Ups1, Saccharomyces cerevisiae, full length, selenomethionine in place of methionine; also called SeMet-labeled Ups1; Ups1A; source: selenomethionine-derived Ups1/Mdm35 complex; expression of the SeMet form not described", "T2 sequence (looked up)": "T1 sequence (looked up)", "assay": "crystal structure; selenomethionine-substituted Ups1/Mdm35, SAD, 2.9 Å; hanging drop, 16 °C, 8% tacsimate pH 5.0, 20% PEG3350, sodium thiocyanate"}, "Ups1-3E mutant": {"target": "T3, Ups1-3E mutant (Saccharomyces cerevisiae, UniProt Q05776 1-175, K140E | R146E | K154E)", "T3 construct": "Ups1, Saccharomyces cerevisiae, mutant of the full-length wild-type construct; limits not restated for the mutant; also called K140E/R146E/K154E; source: gene synthesized (Beijing SYKM); E. coli Trans B, purified with Mdm35", "T3 sequence (looked up)": "T1 sequence (looked up) with K140E, R146E, K154E", "assay": "co-sedimentation; liposome co-sedimentation: 20 μM Ups1/Mdm35 or mutants with DOPC/DOPA = 80/20 liposomes (8 mM), 20 mM Tris-HCl pH 7.5, 150 mM NaCl, 1 mM EDTA, 25 °C, 30 min; 250,000 g; Mdm35 in the pellet taken as complexed with liposome-bound Ups1"}, "Ups1 F69L mutant": {"target": "T4, Ups1 F69L mutant (Saccharomyces cerevisiae, UniProt Q05776 1-175, F69L)", "T4 construct": "Ups1, Saccharomyces cerevisiae, mutant of the full-length wild-type construct; limits not restated for the mutant; source: gene synthesized (Beijing SYKM); E. coli Trans B, purified with Mdm35", "T4 sequence (looked up)": "T1 sequence (looked up) with F69L", "assay": "co-sedimentation; liposome co-sedimentation: 20 μM Ups1/Mdm35 or mutants with DOPC/DOPA = 80/20 liposomes (8 mM), 20 mM Tris-HCl pH 7.5, 150 mM NaCl, 1 mM EDTA, 25 °C, 30 min; 250,000 g; Mdm35 in the pellet taken as complexed with liposome-bound Ups1"}, "Ups1-2E mutant": {"target": "T5, Ups1-2E mutant (Saccharomyces cerevisiae, UniProt Q05776 1-175, K140E | R146E)", "T5 construct": "Ups1, Saccharomyces cerevisiae, mutant of the full-length wild-type construct; limits not restated for the mutant; also called K140E/R146E; source: gene synthesized (Beijing SYKM); E. coli Trans B, purified with Mdm35", "T5 sequence (looked up)": "T1 sequence (looked up) with K140E, R146E", "assay": "co-sedimentation; liposome co-sedimentation: 20 μM Ups1/Mdm35 or mutants with DOPC/DOPA = 80/20 liposomes (8 mM), 20 mM Tris-HCl pH 7.5, 150 mM NaCl, 1 mM EDTA, 25 °C, 30 min; 250,000 g; Mdm35 in the pellet taken as complexed with liposome-bound Ups1"}, "Ups1-4E mutant": {"target": "T6, Ups1-4E mutant (Saccharomyces cerevisiae, UniProt Q05776 1-175, K140E | R146E | K154E | K166E)", "T6 construct": "Ups1, Saccharomyces cerevisiae, mutant of the full-length wild-type construct; limits not restated for the mutant; also called K140E/R146E/K154E/K166E; source: gene synthesized (Beijing SYKM); E. coli Trans B, purified with Mdm35", "T6 sequence (looked up)": "T1 sequence (looked up) with K140E, R146E, K154E, K166E", "assay": "co-sedimentation; liposome co-sedimentation: 20 μM Ups1/Mdm35 or mutants with DOPC/DOPA = 80/20 liposomes (8 mM), 20 mM Tris-HCl pH 7.5, 150 mM NaCl, 1 mM EDTA, 25 °C, 30 min; 250,000 g; Mdm35 in the pellet taken as complexed with liposome-bound Ups1"}}, "note": "Where a chain is given by its changes, count along the chain named."}
{"binder": "B1", "values": [{"measurement": "binding result", "setting": "[1]", "value": "binds"}]}
{"binder": "B2", "values": [{"measurement": "binding result", "setting": "[2]", "value": "binds"}]}
{"binder": "B3", "values": [{"measurement": "binding result", "setting": "Ups1-3E mutant", "value": "binds"}, {"measurement": "binding result", "setting": "Ups1 F69L mutant", "value": "binds"}, {"measurement": "binding result", "setting": "Ups1-2E mutant", "value": "binds"}, {"measurement": "binding result", "setting": "Ups1-4E mutant", "value": "binds"}]}
{"binder": "B4", "values": [{"measurement": "binding result", "setting": "[1]", "value": "binds"}]}
